Experimental findings from patent US7070972 (US Dept. of Health and Human Services, dated 2006) are described below.

Experiment [1] deals with T1, common γ chain of the IL-2 receptor, wild type (UniProt P31785 23-369, limits assumed).
T1 construct: whole, on cells; Tested in cell lysates; also called wild type γc
T1 sequence (looked up): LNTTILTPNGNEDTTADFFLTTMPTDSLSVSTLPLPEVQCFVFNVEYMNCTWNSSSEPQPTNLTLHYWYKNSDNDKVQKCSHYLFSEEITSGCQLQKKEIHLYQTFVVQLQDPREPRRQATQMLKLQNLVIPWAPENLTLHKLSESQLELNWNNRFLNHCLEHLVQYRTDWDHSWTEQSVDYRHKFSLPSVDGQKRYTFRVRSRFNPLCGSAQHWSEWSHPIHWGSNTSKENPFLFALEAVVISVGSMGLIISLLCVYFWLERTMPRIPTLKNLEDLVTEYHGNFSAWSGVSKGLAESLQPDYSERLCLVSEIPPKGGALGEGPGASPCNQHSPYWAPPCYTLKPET
Put plainly: co-immunoprecipitation from YT cell lysates with R878, JAK-3 Western blot.

The target in the next experiment is T2, JAK-1 (UniProt P23458 1-1154, limits assumed).
T2 construct: whole, on cells; Tested in cell lysates
The experiment in a line: anti-Tac immunoprecipitation, JAK-1 Western blot, COS-7 cotransfectants.

T2 sequence (P23458 whole entry): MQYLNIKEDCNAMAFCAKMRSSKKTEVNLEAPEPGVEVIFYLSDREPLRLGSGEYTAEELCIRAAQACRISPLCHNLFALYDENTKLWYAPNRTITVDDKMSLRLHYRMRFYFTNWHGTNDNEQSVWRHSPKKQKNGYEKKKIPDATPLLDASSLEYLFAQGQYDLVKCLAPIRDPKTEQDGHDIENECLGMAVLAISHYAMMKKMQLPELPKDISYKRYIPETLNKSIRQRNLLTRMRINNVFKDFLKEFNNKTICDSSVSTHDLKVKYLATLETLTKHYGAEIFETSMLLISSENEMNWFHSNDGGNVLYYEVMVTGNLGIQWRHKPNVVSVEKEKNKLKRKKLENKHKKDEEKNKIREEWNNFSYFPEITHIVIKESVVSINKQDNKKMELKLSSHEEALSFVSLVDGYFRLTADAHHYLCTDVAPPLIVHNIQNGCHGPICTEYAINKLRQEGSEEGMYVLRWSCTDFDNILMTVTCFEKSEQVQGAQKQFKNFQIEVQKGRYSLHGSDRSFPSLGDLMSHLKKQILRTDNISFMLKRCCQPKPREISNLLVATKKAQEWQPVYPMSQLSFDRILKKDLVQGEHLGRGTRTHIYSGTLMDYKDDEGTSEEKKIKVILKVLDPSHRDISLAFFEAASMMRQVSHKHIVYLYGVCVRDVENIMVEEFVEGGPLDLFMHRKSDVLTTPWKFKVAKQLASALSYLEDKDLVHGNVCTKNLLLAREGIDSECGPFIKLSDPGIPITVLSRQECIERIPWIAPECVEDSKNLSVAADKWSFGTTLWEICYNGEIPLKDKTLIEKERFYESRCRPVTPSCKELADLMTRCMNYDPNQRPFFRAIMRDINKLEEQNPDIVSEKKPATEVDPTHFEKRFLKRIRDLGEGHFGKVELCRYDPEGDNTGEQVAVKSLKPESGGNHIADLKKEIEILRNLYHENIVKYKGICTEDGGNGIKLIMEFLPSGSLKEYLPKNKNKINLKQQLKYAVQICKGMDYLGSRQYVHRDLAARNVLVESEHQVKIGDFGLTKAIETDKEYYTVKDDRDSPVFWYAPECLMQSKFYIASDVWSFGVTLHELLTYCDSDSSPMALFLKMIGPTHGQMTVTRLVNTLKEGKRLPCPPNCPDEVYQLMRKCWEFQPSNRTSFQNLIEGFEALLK

B1: JAK-3 protein (enzyme)
chain: MAPPSEETPLIPQRSCSLLSTEAGALHVLLPARAPGPPQRLSFSFGDHLAEDLCVQAAKASGILPVYHSLFALATEDLSCWFPPSHIFSVEDASTQVLLYRIRFYFPNWFGLEKCHRFGLRKDLASAILDLPVLEHLFAQHRSDLVSGRLPVGLSLKEQGECLSLAVLDLARMAREQAQRPGELLKTVSYKACLPPSLRDLIQGLSFVTRRAIRRTVRRALPRVAACQADRHSLMAKYIMDLERLDPAGAAETFHVGLPGALGGHDGLGLLRVAGDGGIAWTQGEQEVLQPFCDFPEIVDISIKQAPRVGPAGEHRLVTVTRTDNQILEAEFPGLPEALSFVALVDGYFRLTTDSQHFFCKEVAPPRLLEEVAEQCHGPITLDFAINKLKTGGSRPGSYVLRRSPQDFDSFLLTVCVQNPLGPDYKGCLIRRSPTGTFLLVGLSRPHSSLRELLATCWDGGLHVDGVAVTLTSCCIPRPKEKSNLIVVQRGHSPPTSSLVQPQSQYQLSQMTFHKIPADSLEWHENLGHGSFTKIYRGCRHEVVDGEARKTEVLLKVMDAKHKNCMESFLEAASLMSQVSYRHLVLLHGVCMAGDSTMVQEFVHLGAIDMYLRKRGHLVPASWKLQVVKQLAYALNYLEDKGLPHGNVSARKVLLAREGADGSPPFIKLSDPGVSPAVLSLEMLTDRIPWVAPECLREAQTLSLEADKWGFGATVWEVFSGVTMPISALDPAKKLQFYEDRQQLPAPKWTELALLIQQCMAYEPVQRPSFRAVIRDLNSLISSDYELLSDPTPGALAPRDGLWNGAQLYACQDPTIFEERHLKYISQLGKGNFGSVELCRYDPLAHNTGALVAVKQLQHSGPDQQRDFQREIQILKALHSDFIVKYRGVSYGPGRPELRLVMEYLPSGCLRDFLQRHRARLDASRLLLYSSQICKGMEYLGSRRCVHRDLAARNILVESEAHVKIADFGLAKLLPLDKDYYVVREPGQSPIFWYAPESLSDNIFSRQSDVWSFGVVLYELFTYCDKSCSPSAEFLRMMGCERDVPALCRLLELLEEGQRLPAPPACPAEVHELMKLCWAPSPQDRPSFSALGPQLDMLWSGSRGCETHAFTAHPEGKHHSLSFS
notes: Intracellular kinase of 1124 residues; Tested as the endogenous protein in lysates of HUT-78, YT, NK and NK3.3 cells, or as recombinant protein in lysates of transfected COS-7 cells; also called L-JAK; human JAK-3
Take B1: the binding result in experiment [1] is listed as “binds”.

B2: chimeric α/γ/γ receptor chain (receptor, UniProt P01589 22-240, looked up)
chain: ELCDDDPPEIPHATFKAMAYKEGTMLNCECKRGFRRIKSGSLYMLCTGNSSHSSWDNQCQCTSSATRNTTKQVTPQPEEQKERKTTEMQSPMQPVDQASLPGHCREPPPWENEATERIYHFVVGQMVYYQCVQGYRALHRGPAESVCKMTHGKTRWTQPQLICTGEMETSQFPGEEKPQASPEGRPESETSCLVTTTDFQIQTEMAATMETSIFTTEYQVVISVGSMGLIISLLCVYFWLERTMPRIPTLKNLEDLVTEYHGNFSAWSGVSKGLAESLQPDYSERLCLVSEIPPKGGALGEGPGASPCNQHSPYWAPPCYTLKPET
B2: the binding result with JAK-1 is “no binding”.
